A short description of this data set: label from the status in PepcDB records.
As for “MTLMVPFKQVDVFTEKPFMGNPVAVINFLEIDENEVSQEELQAIANWTNLSETTFLFKPSDKKYDYKLRIFTPRSELPFAGHPTIGSCKAFLEFTKNTTATSLVQECKIGAVPITINEGLISFKAPMADYESISSEMIADYEKAIGLKFIKPPALLHTGPEWIVALVEDAETCFNANPNFAMLAHQTKQNDHVGIILAGPKKEAAIKNSYEMRAFAPVINVYEDPVCGSGSVALARYLQEVYKFEKTTDITISEGGRLKRNGLMLASIKKEADNSTSYYIAGHATTVIDGKIKV”, the protein production result was “not failed”.

With “MLIVSGCSSSQNNNGSGKSESKDSRVIHDEEGKTTVSGTPKRVVVLELSFLDAVHNLGITPVGIADDNKKDMIKKLVGSSIDYTSVGTRSEPNLEVISSLKPDLIIADAERHKNIYKQLKKIAPTIELKSREATYDETIDSFTTIAKALNKEDEGKEKLAEHKKVINDLKAELPKDENRNIVLGVARADSFQLHTSSSYDGEIFKMLGFTHAVKSDNAYQEVSLEQLSKIDPDILFISANEGKTIVDEWKTNPLWKNLKAVKNGQVYDADRDTWTRFRGIKSSETSAKDVLKKVYNK”, the protein production entry is reported as “failed”.

With “MAQENPLWMRHCAISPDGTTIAFTYKGDIFTVPVSGGKATQITTNPAFDTTPIWSPDSKQIAFASDRMGSMDVFIVSKDGGEPRRLTTFSGGETPVAFTDAGHILFTADIMPSTEDAGFPSNGQFQQIYQIPVSGGRPVMFSSMPMECISINKEGTILYQDKKGYEDYWRKHQKSPIARDIWMLRPGQTPRYEKQTTFIGEDREPVWAPDGKSFYYLSEENGTFNVYQRTPGSDTSKQVTHHKQHPVRFLEHHHHHH”, the protein production result is reported as “failed”.

For the sequence “MVSMLTRIRRQIKRVIEPLAKTLAQLKVSANFITMLGLIFAIVYYFEIMRSNTTLGIIFLVFSALMDAIDGEVARVSKTVSPLGSFLDSTLDRIEDILYISAFIFLGFSSYLVAIAVGLSLTISYIRAKAESLGLKMEGRGIIERGERIIFVFVILLLYIIVSKQVSLYLFYLFMLLTAITVIQRFYAVYSLLRK”, the protein production result was “failed”.

Take “MSVEIKRVDKHHCLDLVGIFIELERYYFGDKAASEQDLANYLSHQVFSEHSGVKVIAAVEHDKVLGFATYTIMFPAPKLSGQMYMKDLFVSSSARGKGIGLQLMKHLATIAITHNCQRLDWTAESTNPTAGKFYKSIGASLIREKEYYRFEGNGLNKLAKSL”: the protein production result was “not failed”.

Take “MGHHHHHHSHMLPPEQWSHTTVRNALKDLLKDMNQSSLAKECPLSQSMISSIVNSTYYANVSAAKCQEFGRWYKHFKKTKDMM”: the protein production result is recorded as “not failed”.

As to “MDHKDLAQRILRDIGGEDNIVAAAHCATRLRLVLKDTKDVDRQSLDDDPDLKGTFETGGMFQIIVGPGDVDHVFKELDDATSKDIAVSTEQLKDVVANNANWFSRAVKVLADIFVPLIPILVGGGLLMAINNVLVAQDLFGPQSLVEMFPQISGVAEMINLMASAPFAFLPVLVGFTATKRFGGNEFLGAGIGMAMVFPSLVNGYDVAATMAAGEMPMWSLFGLDVAQAGYQGTVLPVLVVSWILATIEKFLHKRLKGTADFLITPVLTLLLTGFLTFIAIGPAMRWVGDVLAHGLQGLYDFGGPVGGLLFGLVYSPIVITGLHQSFPPIELELFNQGGSFIFATASMANIAQGAACLAVFFLAKSEKLKGLAGASGVSAVLGITEPAIFGVNLRLRWPFFIGIGTAAIGGALIALFNIKAVALGAAGFLGVVSIDAPDMVMFLVCAVVTFFIAFGAAIAYGLYLVRRNGSIDPDATAAPVPAGTTKAEAEAPAEFSNDSTIIQAPLTGEAIALSSVSDAMFASGKLGSGVAIVPTKGQLVSPVSGKIVVAFPSGHAFAVRTKAEDGSNVDILMHIGFDTVNLNGTHFNPLKKQGDEVKAGELLCEFDIDAIKAAGYEVTTPIVVSNYKKTGPVNTYGLGEIEAGANLLNVAKKEAVPATP”, the protein production result is reported as “failed”.

Turning to “MNFSLVHLRENVRRVSVTVAIGAGALLISGPFFTAHTAEATETYVLAESPEFYQDNVTDYTGQISSSDITNIQAAIDDVKASEQKVIFVVFLSSFDGVDPETWTQQALQANGGGNVLIYALAPEERQYGIQGGTQWTDAELDAANNAAFQALSQEDWAGSALALAESVGSSSSSSSGSSSSSDFSGAWLAAAGVGTVAAGGGIWAYSRSRKKKTSAATLEDAREIDPRDTNRLMQLPMETLEHLAQEELTSTDDSIRRGKEELAIATSEFGPERTRSFNRAMNHSTGTLQKAFEIQQRLNDSIPESEAERQSMLVEIISSCGQADDALDAEAQNFADMRNLLINAGSKLDALTQKSVDLRTRLPKAQETLAGLRTRYSAEVLESIDDNVDLASASLDEAEEVLPQAYEIESMPAGEQGGLIDAIRHIEHAITTADKLLAGVEHADENISTAKANVADLIQEISDEINEAGQLKQSAGADGARADWASLDDAVRAASAALITASADAEKDPLGTYTELVDVDSALDTQLDTLRATAADQARQLRVFDQQLQSARSQIQKAEDLISTRGRIVKSEARTHLANAQKLYAMAQQNRTRDTRAGIDYGRQAAVAAQRASKSAQNDITTYNNRHNSGGGTTGAIVTGMVINSILNSGRGGGFGGGGGFGGGGGGFSGGGGGGGGFRGGRF”, the protein production result is listed as “failed”.

“MATSGTYVTEVPLKGSAKNHYKRWKSENQLFPDAIGHHIQGVTVHEGDWDSHGAIKSWNYTCDGKQEVFKEKRELDDQKMAVTFRGLDGHVMEQLKVYDVIFQFVPKSQEGCVCKVTMFWEKRYEDSPEPIKYMKFVTSLAADMDDHILKNQSKA”: the protein production result is listed as “failed”.

Consider “MGSMLLNGAKMKYGNLSLKCMVQNQKALNFYLSQGFEIVSQVDDELGGYYYMSFVAQT”, for which the protein production entry was “failed”.

On to “MMINRINLTDIRSFVLIARLGNFTKAAETLDVSRSHVSRQISSLEKQMGVTLLIRTTRTLRLTEAGKHFYHQCEQALHTIDQALLSAVDDVEKVQGEIKINCVGGYLGEVFLADIVNTFMQQYPDVSISLDFSSNRVDLIEEEFDIAFRMGSLEDSGFVAKKLLDIEMGTLASPKYLQQYGRPSHPKELQQHHCLTGSVRKWHFQSLVNKEHYDVSIKGNLQCKNGRVLVAGAIAGNGIIRVPLIYCQQELDDKKLVQVFEEWGIPTVDFSAIYHRDRYQPKRIRTFIDFVKQYSDSLFT”, for which the protein production entry is given as “failed”.

“MADMSDAPLVVQSDRTILLEVDNPLYPEARDALARFAELVKSPEHIHTYRLTPLSLWNAAAGGLDAATIIQVLADYSKYPLPANVVADIREYVGRYGKVKLVARGTGLRLVTADPGIAAEISNNKRIQPYIKERQDACTLAIDPWQRGPVKQALIKIGYPVEDLAGYIPGAPLPFSLRERTLNGETFSLRPYQAEAARVFYAGGSSRGGSGVIVLPCGAGKTVVGIAAMALCQCYTLILVTSVTAARQWLAEIRDKTDLPPEMLGEYTGEKKEIKPVTVATYQIITHRRRRNEDYPNFQLFNQQDWGLIIYDEVHLLPAPIFRITAELQARRRLGLTATLIREDGHEDDVFSLIGPKKYDLPWKQLEAQGWIAKATCYEVRLNLPPEMRLDYASAGERDKYRIAATNPVKEAVVENIIKRHEGEQVLVIGQYLEQLERLARRLGVPMITGQTSNRERERLYQAFREGTLKCLVVSKVANFAIDLPEASVAVQVSGAFGSRQEEAQRLGRILRPKKGGLPASFYTLVTRETVEQEFAVHRQLFLTEQGYRYVIIGPDLEQEGDKVYPLKTPTGSEPAVGAVIKQENLDGKVIDLMAWRQKAGR”: the protein production entry is “failed”.

As for “MVWTGLLIGVLFGVILQRGRICFNSAFRDVLIFKDNYLMRLAALTLGLESITLLIFAQAGIITLNPKPLNWIGNIIGGFIFGMGMVLAGGCASGVTYRTGEGMTTAWFAALAYALTAHATKKGLFSGWIKWLSNYTVTVSNTNPVYAPKTGPTIATVLGISPWIASIIFLALMLWYAFGVKNKSQRPSKLNWIAASVLIAILAPIAWWASASTGRNYGLGITGGWINLVSVYANNASLNWEGAEILGIIIGAAISAIAGKEFKLRMPKNPKTYAQVLLGGFLMGFGAVTAGGCNIGHFLTGVPTLAISSIVASIFFILGNWTMAWFLFGRQK”, the protein production entry is recorded as “failed”.

Turning to “MSIRIKLFLAFLLTTFVVVMGMHFFTRWSLEKGFTEFIEKRQQERLDKIIDVLEEHYAEHRGWGELAGNKQHWISLLWHAGPHRHRPPKWIIEQAQHEPDRQWPPAVTPGTAERKWSPFELRVILLDADRSILFGRKELISQLSLHPVQYEHRTVGFLGLLPGNPVSQASDIYFMEQQADFFFWIALTMVVLSALIAWLMAYHLGRPLKQIAAVVQRLATGDYKARLPVISKDEMGQLALNFNDTAAALEQAEQSRRRWVADISHELRTPLAVLRGELEAILDGVHPLTPAAIESLSGDVLRLNRLTEDLYQLALSDQGALSYRKVLLDPVPLLREDLATFTTDFNHKQISVRWINRLFKPVLVNADPDRLSQLFRNLLTNSLNHTDARGQLEITVQRLADKLVIELADSSPGVSDQDIAHLFDRFYRVDHSRNRHLGGAGLGLAICSNIVRAHEGTLMASHSALGGLAIHIELPITP”, the protein production entry is “failed”.

For the sequence “AVEARQSATEAERRRHRLEQILKTVPSCVVQLDRDGQFVFANQRAIDVLGLSQSELKDRLYNDPEWEIRDLDGHPIPDAELPFRQVLETGQPLSDARHTIHWPDGTEKVLSVNGAPLFDDDGAVESVVCTLTDIT”, the protein production entry was “not failed”.

With “MNLASQSGEAGAGQLLFANFNQDNTEVKGASRAAGLGRRAVVWSLAVGSKSGYKFFSLSSVDKLEQIYECTDTEDVCIVERLFSSSLVAIVSLKAPRKLKVCHFKKGTEICNYSYSNTILAVKLNRQRLIVCLEESLYIHNIRDMKVLHTIRETPPNPAGLCALSINNDNCYLAYPGSATIGEVQVFDTINLRAANMIPAHDSPLAALAFDASGTKLATASEKGTVIRVFSIPEGQKLFEFRRGVKRCVSICSLAFSMDGMFLSASSNTETVHIFKLETVKEKPPEEPTTWTGYFGKVLMASTSYLPSQVTEMFNQGRAFATVRLPFCGHKNICSLATIQKIPRLLVGAADGYLYMYNLDPQEGGECALMKQHRLDGSLETTNEILDSASHDCPLVTQTYGAAAGKGTYVPSSPTRLAYTDDLGAVGGACLEDEASALRLDEDSEHPPMILRTD”, the protein production result is “failed”.

With “MNSAALKSCLERENALVVEFLHALEAETEALMDRRAHESLQAAVQRKETLADDLAQLGAERDALLSGAGLASGPAGTDAAAAAHPELGPLWQALQANAAQAREHNQRNGTLIAVNLRHTQESLDALRQAAGTGAAATYDAQGRGKRGYSSA”, the protein production entry was “not failed”.

On to “MTFAWGRGSHGGAGMRIVQITDTHFSPTKAHFNGNWAPLAAWIEQSGADLVIHTGDLSVDGADRDDDIAFCMDLMREISAPMLLVPGNHDVGHLPGSLQPVNAGRLERWRRLVGPDYWMEDAGSWRLIGLDSLLMGFDDAEEEAQFDWLRTVLESRGGRRVALFAHKPLFVDAPGEGDTGYWSVRPAQRQRLYDLIATHDVALFASGHLHRAWQGKYENTSLVWGPSAAFVVGDMERDMPGERLLGAVIHQFSDTVTSEIVAIPGMTAYVLDDVVAEVYPHEAHKARKRVASLEHHHHHH”, for which the protein production result was “failed”.

“MQKTSFALLVAALQLASASALAATPPVADAIWFNGPIITIDDQHPKAQAVAVKDGKILAVGDRQHVLKNKGPATQMLDLKGATLLPGFVDPHGHVSMVGFQAASANLLPPPDGTNNSIPGLQETLRRFEQQSPIPKQFGVLFGFGYDDSQLQEQRHPTKADLDAVTRDLPIAIVHQSSHLGVLNSKALELAGIDASTPNPEGGVIRRVDGSQEPNGVLEENAFFNALIRIFPKLTADQAVDMLSAGQKLYVSYGYTTIQDGRSSPDQVKTAIKAAGDGKLLADIVSYPDILTPGVKQLMVAPWYHPSNQPVVYNQHFRIGGVKLTLDGSPQGKTAWLSQPYFKPPQGQDASYAGYGVVKDADALAIYKEALANRWQILSHTNGDRAIDQLLGSMRAAEQAYPGVDVRPVMIHGQTLRKDQVAELKQLKIFPSLFPMHTYYWGDWHRQSVLGPERAENISPTQWVLQAGMKFTTHHDAPVALPDSMRVLAATVNRTTRSGYVLGPDQRVTPLQALKAMTLWSAYQHFEEDRKGSITPGKLADFAVLSANPLTVKPETLSEIQVLKTVKEGRVIYERPAKVASLPPPFGMHGDPSLPVPQGIRAVAQGDGDLGPALDVIYDRLAPVQP”: the protein production entry is listed as “failed”.

These data come from a protein production outcome set (Wang et al. 2014).
